Laboratory results from publication PMC7721900, “Assembly properties of bacterial tubulin homolog FtsZ regulated by the positive regulator protein ZipA and ZapA from Pseudomonas aeruginosa” (Scientific Reports, 2020).
Numbering of substitutions follows the chain as printed. Numbers in names are those of the source.

Legend:
Conditions in all cases: both partners purified
[1] = molecular target: T1, FtsZ from Pseudomonas aeruginosa (P. aeruginosa, UniProt P47204 1-394); assay: negative stain electron microscopy; MMK buffer (50 mM MES, 100 mM KAc, 5 mM MgAc, pH 6.5), GTP, 1-5 min at room temperature; 5 µM PaFtsZ alone, or with 10 µM ZipA or ZapA
T1 construct: FtsZ, Pseudomonas aeruginosa; cloned in pET15b at NdeI/BamHI; Forms protofilaments and bundles with GTP; also called PaFtsZ; source: E. coli BL21 (pET15b), purified (Talon column, thrombin, source Q 10/10)
T1 sequence (looked up): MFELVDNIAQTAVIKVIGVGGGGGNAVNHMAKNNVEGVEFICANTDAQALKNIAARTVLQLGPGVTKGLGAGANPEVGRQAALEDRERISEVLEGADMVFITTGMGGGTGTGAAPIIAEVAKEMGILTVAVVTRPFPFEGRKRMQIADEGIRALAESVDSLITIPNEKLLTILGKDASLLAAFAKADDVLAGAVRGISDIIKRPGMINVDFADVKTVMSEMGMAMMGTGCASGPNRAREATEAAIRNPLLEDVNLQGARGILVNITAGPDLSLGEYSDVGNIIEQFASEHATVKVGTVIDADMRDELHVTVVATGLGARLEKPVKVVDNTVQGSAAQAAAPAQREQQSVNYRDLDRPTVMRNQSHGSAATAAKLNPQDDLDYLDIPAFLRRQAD

[2] = molecular target: T1, FtsZ from Pseudomonas aeruginosa; assay: negative stain electron microscopy; HMK buffer (50 mM HEPES, 100 mM KAc, 5 mM MgAc, pH 7.5), GTP, 1-5 min at room temperature; 3 or 5 µM PaFtsZ alone, or 5 µM PaFtsZ with 10 µM ZipA or ZapA
[3] = molecular target: T2, FtsZ from Escherichia coli (E. coli, UniProt P0A9A6 1-383); assay: Bodipy fluorescence quenching assay of assembly; HMK buffer, room temperature; 7 µM EcFtsZ (less than 10% Bodipy labeled T151C/Y222W with wild type), alone or with 10 µM ZapA or ZipA
T2 construct: FtsZ, Escherichia coli, wild type; in pET11b; also called EcFtsZ; wild type FtsZ; source: bacterially expressed (pET11b), purified (30% ammonium sulfate, source Q 10/10)
T2 sequence (looked up): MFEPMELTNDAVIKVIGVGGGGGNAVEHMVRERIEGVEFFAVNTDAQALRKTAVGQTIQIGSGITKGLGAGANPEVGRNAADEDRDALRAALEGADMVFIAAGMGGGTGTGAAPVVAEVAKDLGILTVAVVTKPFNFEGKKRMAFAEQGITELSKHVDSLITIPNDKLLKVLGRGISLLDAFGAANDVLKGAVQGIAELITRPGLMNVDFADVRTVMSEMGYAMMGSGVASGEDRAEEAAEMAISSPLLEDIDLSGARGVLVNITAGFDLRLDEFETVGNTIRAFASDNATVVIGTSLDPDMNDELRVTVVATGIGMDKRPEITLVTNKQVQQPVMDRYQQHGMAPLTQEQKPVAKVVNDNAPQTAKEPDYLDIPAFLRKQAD

[4] = molecular target: T2, FtsZ from Escherichia coli; assay: light scattering; HMK buffer, room temperature, 340 nm; 7 µM EcFtsZ plus 10 µM EcZapA
[5] = molecular target: T3, EcFtsZ-F268C labeled with fluorescein (donor) or tetramethylrhodamine (acceptor) (E. coli, UniProt P0A9A6 1-383, F268C, single cysteine labeled separately with Fluorescein 5-maleimide (donor) or Tetramethylrhodamine 5-maleimide (acceptor)); assay: FRET or BRET; HMK buffer; donor- and acceptor-labeled EcFtsZ-F268C polymerized separately for 5 min, alone or with 10 µM ZipA or ZapA, then mixed; decrease of donor fluorescence, single exponential fit; 7 µM EcFtsZ; subunit exchange at steady state
T3 construct: FtsZ, Escherichia coli, single cysteine mutant F268C (printed as L268C in the results); in pET11b; also called EcFtsZ-L268C; source: bacterially expressed (pET11b), purified (30% ammonium sulfate, source Q 10/10)
T3 sequence (looked up): T2 sequence (looked up) with F268C

B1: N-terminal truncated PaZipA (26-289) (domain or fragment, P. aeruginosa, UniProt Q9I3I5 26-289, looked up)
chain: RRMRGGKGKLKFKLDRSFANLPDDDGDSAELLGPARVVEHREPSFDEQDLPSVSAREAKERKGGKRQEEPRQGDLDLDEGLALEADPSDAAETVEPRKGKSKGRKEKEREKAPAVAAEPAPVDEVLIINVIARDESGFKGPALLQNILESGLRFGDMDIFHRHESMAGNGEILFSMANAVKPGTFDLDDIDNFSTRAVSFFLGLPGPRHPKQAFDVMVAAARKLAHELNGELKDEQRSVLTAQTIEHYRQRIIDHERRSLMQKR
notes: ZipA, Pseudomonas aeruginosa, residues 26-289; N-terminally truncated to remove the transmembrane domain; Removal of the His tag is told only for PaFtsZ; also called ZipA from Pseudomonas aeruginosa; source: E. coli BL21 (pET15b), purified (Talon column)
binding result [1]: binds

B2: ZapA from Pseudomonas aeruginosa (natural protein, P. aeruginosa, UniProt Q9HTW3 1-104, looked up)
chain: MSQSNTLTVQILDKEYCINCPDDERANLESAARYLDGKMREIRSSGKVIGADRVAVMAALNITHDLLHRKERLDQESSSTRERVRELLDRVDRALANPADAGEA
notes: ZapA, Pseudomonas aeruginosa; cloned in pET15b at NdeI/BamHI; Removal of the His tag is told only for PaFtsZ; also called PaZapA; source: E. coli BL21 (pET15b), purified (Talon column)
binding result [2]: binds

B3: EcFtsZ-T151C/Y222W labeled with Bodipy at Cys151 (natural protein, E. coli, UniProt P0A9A6 1-383, looked up)
chain: T2 sequence (looked up) with T151C, Y222W
modifications: Bodipy-FL N-(2-aminoethyl)maleimide on Cys 151
notes: FtsZ, Escherichia coli, double mutant T151C/Y222W; in pET11b; Used mixed with a ninefold excess of unlabeled wild-type EcFtsZ; also called Bodipy labeled FtsZ; labeled EcFtsZ; source: bacterially expressed (pET11b), purified (30% ammonium sulfate, source Q 10/10)
binding result [3]: binds

B4: ZapA from Escherichia coli (natural protein, E. coli, UniProt P0ADS2 1-109, looked up)
chain: MSAQPVDIQIFGRSLRVNCPPDQRDALNQAADDLNQRLQDLKERTRVTNTEQLVFIAALNISYELAQEKAKTRDYAASMEQRIRMLQQTIEQALLEQGRITEKTNQNFE
notes: ZapA, Escherichia coli; cloned in pET15b at NdeI/BamHI; Removal of the His tag is told only for PaFtsZ; also called EcZapA; source: E. coli BL21 (pET15b), purified (Talon column)
binding result [4]: binds
binding result [5]: binds
